Legend:
Conditions in all cases: both partners purified
[1] = biological target: T1, C-terminal domain of the Plasmodium falciparum circumsporozoite protein, PfCSP-Cext (Plasmodium falciparum; strain not …, UniProt Q7K740); assay: ITC; sdAbCSP1 (45 µM) titrated into the cell with PfCSP-C (4 µM); 20 mM Tris-HCl, 150 mM NaCl, pH 8.0; 25 °C; one set of sites model; triplicate
T1 construct: Plasmodium falciparum circumsporozoite protein, C-terminal domain (alpha-TSR) with unstructured N- and C-terminal extensions; the compactly folded PfCSP-C domain is aa39-100 of PfCSP-Cext; K42, K45, E46, L48, N49 of PfCSP-Cext equal K314, K317, E318, L320, N321 of PfCSP; numbers count on: the construct PfCSP-Cext; also called PfaCSP-Cext; PfCSP-C (as named in the ITC sections); source: …

[2] = biological target: T1, C-terminal domain of the Plasmodium …; assay: native MS; ITEM-TWO: nanoESI of the mixture (sdAbCSP1 : PfCSP-Cext = 1 : 3.4) in 200 mM ammonium acetate, pH 6.7; complex ions isolated and dissociated in the gas phase by stepwise raised collision cell voltage (2-120 V); apparent gas-phase constants; triplicate
PfCSP-Cext = biological target: T2, PfCSP-Cext (Plasmodium falciparum, UniProt Q7K740); assay: ITC; sdAbCSP1 (45 µM) titrated into the cell with PfCSP-C (4 µM); 25 °C; 20 mM Tris-HCl, 150 mM NaCl, pH 8.0; one set of sites model; triplicate
T2 construct: circumsporozoite protein (PfCSP) of Plasmodium falciparum, C-terminal domain with non-structured N- and C-terminal extensions; the compactly folded PfCSP-C domain is aa39-100; aa114-127 contain the His-tag; numbers count on: the PfCSP-Cext construct; also called C-terminal domain of the Plasmodium falciparum circumsporozoite protein; PfCSP-C (so called in the ITC methods and results); source: E. …
T2 sequence (Q7K740 310-374): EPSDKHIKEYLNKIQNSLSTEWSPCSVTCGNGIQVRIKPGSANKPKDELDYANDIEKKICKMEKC

T1 sequence (Q7K740 310-374): as above

Binder	Kd [1] [nM]	dH [1] [kcal/mol]	KD m0g# (apparent quasi equilibrium constant of gas-phase complex dissociation) [2] [s⁻¹]	dH m0g# (apparent enthalpy of gas-phase complex dissociation) [2] [kcal/mol]	kD m0g# (apparent rate constant of gas-phase complex dissociation) [2]	stoichiometry N (PfCSP-Cext)
camelid single domain antibody sdAbCSP1 (VHH, full length is aa1-144; CDR1 aa25-33, CDR2 aa52-57, HV4 aa74-77, CDR3 aa100-118; aa1-125 is the form without non-structured extensions; source: recombinantly expressed) VHH: QVQLQESGGGLVQAGGSLRLSCAASGRTFSSYSMGWFRLVPGKEREFVARISSSGGNTYYADSVRGRFTISRDNAKNTVYLQMNSLKPEDTAVYYCAADLLQFGRSSRAADYDYWGQGTQVTVSS	0.5	-8.34	3.7e-12	12	1e+10 Ø (unitless number)	–
sdAbCSP1 (VHH, 144 residues (aa1-144); CDR1 aa25-33, CDR2 aa52-57, HV4 aa74-77, CDR3 aa100-118; aa106-108 are SSR; aa1-125 are the folded domain; also called camelid single domain antibody sdAbCSP1; pQ-sdAbCSP1 (form with N-terminal pyro-glutamine); source: recombinantly expressed) VHH: QVQLQESGGGLVQAGGSLRLSCAASGRTFSSYSMGWFRLVPGKEREFVARISSSGGNTYYADSVRGRFTISRDNAKNTVYLQMNSLKPEDTAVYYCAADLLQFGRSSRAADYDYWGQGTQVTVSS	–	–	–	–	–	0.9 ± 0.12

Source: PMC11409006 (Computational and Structural Biotechnology Journal, 2024)
